These results are taken from publication PMC13577091.

Series [1] addresses CcpA (Streptococcus pneumoniae D39?) (UniProt A0A0H2ZQ65). Kind of series: EMSA. The settings on record: Beyotime chemiluminescent EMSA kit, 5X binding buffer (composition and pH not stated), 10 ul, room temperature, 10 min then 20 min with labeled probe, 6% …. In general terms: Mobility shift assays separate free from complexed probe on a gel.
Series [2] concerns the target CcpA;HPr (Streptococcus pneumoniae D39?;Streptococcus pneumoniae D39) (UniProt A0A0H2ZQ65+A0A0H2ZP52). Kind of series: EMSA. The settings on record: Beyotime chemiluminescent EMSA kit, 5X binding buffer (composition and pH not stated), 10 ul, room temperature, 10 min then 20 min with labeled probe, 6% ….

With “TACACATCTGCTTCTAAAATATTGTTAGAAAACGATTTGACTGTCCTGATCAATTTGTCATGTTCTTATTTCATTTTACTATATTTTTGGTTCGCGGGAAGTCTACTAAGATACTTAAAGATGCAGATAGTGAAAAAAGGTGTAGACATTACCGTAAAAAAGTGATATAATCGTAAGATGTTCAATGTATAGGTGTTAATCATGAGTAGACGTTTTAA (double strand) [Pcps promoter probe]”, the binding result in series [1] and in series [2] was “binds” each time.
